Here are results for 4 molecules from paper PMC6778150 (Scientific Reports, 2019).

The target of one series is thermolysin (UniProt P00800).
Series [1] addresses His6-tagged protealysin (Serratia proteamaculans).
The format of series [2] is physicochemical. As to conditions: kinetic, from DMSO stock (6 µl + 500 µl), 50 mM Tris-HCl pH 7.4, room temperature, 24 h, spectrophotometric at 365 nm. How it is done:
The substrate sorption on labware complicated the measurement of the Abz-RSVIK(Dnp) solubility since the standard approach based on serial dilutions and identification of the linear range of the experimental concentration-dilution factor relationship could not be used. The substrate solubility was evaluated by periodic spectrophotometric quantitation of its dilutions immediately prepared from the stock in DMSO for one day. Up to 130 µM, the substrate solutions remained stable for 24 h (Supplementary Fig. S3); however, starting from 150 µM their optical density decreased with time. Thus, the substrate has reasonable water solubility and can be used in concentrations up to 130 µM.
The stock solutions (6 µl) in DMSO were supplemented with 500 µl of 50 mM Tris-HCl (pH 7.4). The solutions were incubated at room temperature and the concentration changes were controlled spectrophotometrically for 24 h (Supplementary Fig. S3).
Figure S3. Solubility of Abz-RSVIK(Dnp). Different substrate concentrations were prepared in microcentrifuge tubes (SSI). The stock solution was diluted with DMSO 1.3-20 times. The resulting solutions (6 µl) were supplemented with 500 µl of 50 mM Tris-HCl (pH 7.4). […] A. Measured substrate concentrations for all dilutions and time periods. B. Relationship between substrate concentration and stock quantity 5 h after dilution. […]

The test system of another series is thermolysin (TLN). Briefly: 7.5 nM TLN in 10 mM NH4HCO3. As to conditions: 37 °C, up to 40 min.
In a further series the test system is protealysin (PLN). The series is described as follows: 2.5 nM PLN in 10 mM NH4HCO3. As to conditions: Serratia proteamaculans, 37 °C, up to 40 min.
Substrate in series [3]: CC[C@H](C)[C@H](NC(=O)[C@@H](NC(=O)[C@H](CO)NC(=O)[C@H](CCCNC(=N)N)NC(=O)c1ccccc1N)C(C)C)C(=O)N[C@@H](CCCCNc1ccc([N+](=O)[O-])cc1[N+](=O)[O-])C(=O)O
Briefly: Protease activity assay using Abz-RSVIK(Dnp), hydrolysis kinetic parameters, thermolysin. As to conditions: other: thermolysin 2.5 nM, 37 °C, 50 mM Tris-HCl pH 7.4, substrate 2–130 mM as printed, fluorescence ex 320/em 420 nm, Michaelis-Menten fit, two independent experiments with triplicates. It is filed as biochemical. How it is done:
Desired substrate concentrations were obtained by dilution of the stock in DMSO in 50 mM Tris-HCl (pH 7.4).
For the activity assay, 100 µl of the substrate solution at 2–130 mM in 50 mM Tris-HCl (pH 7.4) was added into a well of a black 96-well plate. After incubation at 37 °C for 10 min, 25 µl of the substrate were taken away and replaced with 25 µl of the enzyme solution in the same buffer preheated at 37 °C, and time-related fluorescence changes were monitored on an Infinite M200 Pro (Tecan, Switzerland). Measurements were taken at 37 °C every 10 s for 2–5 min at the excitation and emission wavelengths of 320 and 420 nm, respectively. Fluorescence varied linearly for 3 min. The initial hydrolysis rates were determined from the data obtained within the first 95 s of the reaction. The concentrations of PLN and TLN in the reaction mix were 2.5 nM. In parallel with the hydrolysis rate measurements, the control was conducted with the buffer added to a well instead of an enzyme solution. The main goal of this control was to determine the substrate concentration in the reaction mix. After the incubation, the substrate solution was transferred into a spectrophotometer cell to measure its optical density at 365 nm. The concentration calculated from the obtained OD was taken as the initial substrate concentration in the hydrolysis reaction.
A calibration curve was plotted to convert the obtained relative fluorescence data into the hydrolyzed substrate concentration. […] The course of the reaction was followed by fluorescence changes as described above. The hydrolysis was considered as complete when the fluorescence signal remained steady even after an extra portion of the enzyme was added (Supplementary Fig. S4). After the incubation, serial dilutions of the reaction mix were made, introduced into wells of a 96-well plate and fluorescence was measured as described above. 2,4-Dinitrophenyl was quantified spectrophotometrically in each well as described above. The resulting values were used to plot a calibration curve in coordinates of relative fluorescence units, μM. […]

Non-standard residues stand in square brackets, D forms with d. Residues, ends and D or L forms follow the SMILES beside them. *: point of attachment. Dnp = O=[N+]([O-])c1ccc(*)c([N+](=O)[O-])c1; 2Abz = Nc1ccccc1C(=O)O

As for “2-aminobenzoyl-L-arginyl-L-seryl-L-valyl-L-isoleucyl-L-(ε-2,4-dinitrophenyl)lysine (peptide)”, the KM of hydrolysis of Abz-RSVIK(Dnp) at 37 °C (initial rates fitted to the Michaelis-Menten equation; 2.5 nM enzyme, 50 mM Tris-HCl pH 7.4) stood at 33 μM with thermolysin and 35 μM in series [1].

As to `CC[C@H](C)[C@H](NC(=O)[C@@H](NC(=O)[C@H](CO)NC(=O)[C@H](CCCNC(=N)N)NC(=O)c1ccccc1N)C(C)C)C(=O)N[C@@H](CCCCNc1ccc([N+](=O)[O-])cc1[N+](=O)[O-])C(=O)O` [Abz-RSVIK(Dnp), 2-aminobenzoyl-L-arginyl-L-seryl-L-valyl-L-isoleucyl-L-(ε-2,4-dinitrophenyl)lysine] (H-[2Abz]RSVIK(Dnp)-OH), in series [2], the “Solubility: concentration from which optical density decreased with time” value is on record as not below 150 µM.

Turning to Abz-Arg-Ser-Val-Ile-Lys(Dnp), in the series with thermolysin (TLN), the cleaved bond result is “Ser-Val, 20 min” and the not cleaved result is “products remain undetectable after the time period (40 min)”. In addition, in the series with protealysin (PLN), the cleaved bond entry was “Ser-Val, 20 min” and the not cleaved result is “products remain undetectable after the time period (40 min)”.

B1: thermolysin (TLN) (Bacillus thermoproteolyticus) (protein)
chain: ITGTSTVGVGRGVLGDQKNINTTYSTYYYLQDNTRGNGIFTYDAKYRTTLPGSLWADADNQFFASYDAPAVDAHYYAGVTYDYYKNVHNRLSYDGNNAAIRSSVHYSQGYNNAFWNGSQMVYGDGDGQTFIPLSGGIDVVAHELTHAVTDYTAGLIYQNESGAINEAISDIFGTLVEFYANKNPDWEIGEDVYTPGISGDSLRSMSDPAKYGDPDHYSKRYTGTQDNGGVHINSGIINKAAYLISQGGTHYGVSVVGIGRDKLGKIFYRALTQYLTPTSNFSQLRAAAVQSATDLYGSTSQEVASVKQAFDAVGVK
notes: purchased Serva, Germany
The term Km denotes the concentration of substrate that gives half-maximal velocity. Usually kcat stands for the maximal rate divided by the concentration of active sites. By kcat/Km is commonly meant the second-order rate constant that governs catalysis at low substrate concentration. Consider B1, for which, in series [3], the Km was 33 ± 8 µM, the turnover number (kcat) was found to be 7 ± 1 s⁻¹ and the kcat/Km came out at 210000 ± 60000 M⁻¹ s⁻¹.
